Source: PMC12216690, “MORC2 is a phosphorylation-dependent DNA compaction machine” (Nature Communications, 2024)

What was measured:
[1] = biological target: the molecule itself; experiment: SEC-MALS; XBridge Protein BEH SEC column; 50 mM HEPES pH 8.0, 300 mM NaCl, 1 mM TCEP; 20 µl of protein at 1 mg/ml injected; no nucleotide
[2] = biological target: the molecule itself; experiment: atomic force microscopy; dry AFM, 10 nM MORC2 in 40 mM Tris pH 7.5, 50 mM NaCl, 1 mM MgCl2, 0.5 mM TCEP, with 1 mM ATP, with 1 mM AMP-PNP or without ATP, on poly-O-lysine treated mica; particle volumes fitted with two gaussians
[3] = biological target: the molecule itself; experiment: cryo-EM structure; 2 µM protein with AMP-PNP, with or without three-fold molar excess of 60 bp DNA; C2 symmetry imposed
[4] = biological target: the molecule itself; experiment: number and brightness analysis (fluorescence fluctuation spectroscopy); live MORC2 knockout HEK293T cells with low expression of MORC2-meGFP, nucleus, 37 degrees; without or with 0.5 µg/mL neocarzinostatin for 1 hour

B1: full-length MORC2 (MORC2^WT) (natural protein, human, UniProt Q9Y6X9 1-1032, looked up)
chain: MAFTNYSSLNRAQLTFEYLHTNSTTHEFLFGALAELVDNARDADATRIDIYAERREDLRGGFMLCFLDDGAGMDPSDAASVIQFGKSAKRTPESTQIGQYGNGLKSGSMRIGKDFILFTKKEDTMTCLFLSRTFHEEEGIDEVIVPLPTWNARTREPVTDNVEKFAIETELIYKYSPFRTEEEVMTQFMKIPGDSGTLVIIFNLKLMDNGEPELDIISNPRDIQMAETSPEGTKPERRSFRAYAAVLYIDPRMRIFIHGHKVQTKRLSCCLYKPRMYKYTSSRFKTRAEQEVKKAEHVARIAEEKAREAESKARTLEVRLGGDLTRDSRVMLRQVQNRAITLRREADVKKRIKEAKQRALKEPKELNFVFGVNIEHRDLDGMFIYNCSRLIKMYEKVGPQLEGGMACGGVVGVVDVPYLVLEPTHNKQDFADAKEYRHLLRAMGEHLAQYWKDIAIAQRGIIKFWDEFGYLSANWNQPPSSELRYKRRRAMEIPTTIQCDLCLKWRTLPFQLSSVEKDYPDTWVCSMNPDPEQDRCEASEQKQKVPLGTFRKDMKTQEEKQKQLTEKIRQQQEKLEALQKTTPIRSQADLKKLPLEVTTRPSTEEPVRRPQRPRSPPLPAVIRNAPSRPPSLPTPRPASQPRKAPVISSTPKLPALAAREEASTSRLLQPPEAPRKPANTLVKTASRPAPLVQQLSPSLLPNSKSPREVPSPKVIKTPVVKKTESPIKLSPATPSRKRSVAVSDEEEVEEEAERRKERCKRGRFVVKEEKKDSNELSDSAGEEDSADLKRAQKDKGLHVEVRVNREWYTGRVTAVEVGKHVVRWKVKFDYVPTDTTPRDRWVEKGSEDVRLMKPPSPEHQSLDTQQEGGEEEVGPVAQQAIAVAEPSTSECLRIEPDTTALSTNHETIDLLVQILRNCLRYFLPPSFPISKKQLSAMNSDELISFPLKEYFKQYEVGLQNLCNSYQSRADSRAKASEESLRTSERKLRETEEKLQKLRTNIVALLQKVQEDIDINTDDELDAYIEDLITKGD
modifications: came phosphorylated from insect cells at multiple sites; top 6 hits S725, S730, S739, S743, S777, S779
notes: MORC2, human, UniProt Q9Y6X9, full length (1-1032); No cleavage of the tag is described; the SPR and single-molecule methods speak of StrepII-tagged MORC2; also called MORC2 WT (1-1032); MORC2^Apo; source: Sf9 insect cells, purified (Strep-Tactin, HiTrap Q, Superose 6 SEC)
stoichiometry N [1]: 2

B2: ATP-binding-deficient mutant MORC2 N39A (MORC2^N39A) (natural protein, human, UniProt Q9Y6X9 1-1032, looked up)
chain: MAFTNYSSLNRAQLTFEYLHTNSTTHEFLFGALAELVDAARDADATRIDIYAERREDLRGGFMLCFLDDGAGMDPSDAASVIQFGKSAKRTPESTQIGQYGNGLKSGSMRIGKDFILFTKKEDTMTCLFLSRTFHEEEGIDEVIVPLPTWNARTREPVTDNVEKFAIETELIYKYSPFRTEEEVMTQFMKIPGDSGTLVIIFNLKLMDNGEPELDIISNPRDIQMAETSPEGTKPERRSFRAYAAVLYIDPRMRIFIHGHKVQTKRLSCCLYKPRMYKYTSSRFKTRAEQEVKKAEHVARIAEEKAREAESKARTLEVRLGGDLTRDSRVMLRQVQNRAITLRREADVKKRIKEAKQRALKEPKELNFVFGVNIEHRDLDGMFIYNCSRLIKMYEKVGPQLEGGMACGGVVGVVDVPYLVLEPTHNKQDFADAKEYRHLLRAMGEHLAQYWKDIAIAQRGIIKFWDEFGYLSANWNQPPSSELRYKRRRAMEIPTTIQCDLCLKWRTLPFQLSSVEKDYPDTWVCSMNPDPEQDRCEASEQKQKVPLGTFRKDMKTQEEKQKQLTEKIRQQQEKLEALQKTTPIRSQADLKKLPLEVTTRPSTEEPVRRPQRPRSPPLPAVIRNAPSRPPSLPTPRPASQPRKAPVISSTPKLPALAAREEASTSRLLQPPEAPRKPANTLVKTASRPAPLVQQLSPSLLPNSKSPREVPSPKVIKTPVVKKTESPIKLSPATPSRKRSVAVSDEEEVEEEAERRKERCKRGRFVVKEEKKDSNELSDSAGEEDSADLKRAQKDKGLHVEVRVNREWYTGRVTAVEVGKHVVRWKVKFDYVPTDTTPRDRWVEKGSEDVRLMKPPSPEHQSLDTQQEGGEEEVGPVAQQAIAVAEPSTSECLRIEPDTTALSTNHETIDLLVQILRNCLRYFLPPSFPISKKQLSAMNSDELISFPLKEYFKQYEVGLQNLCNSYQSRADSRAKASEESLRTSERKLRETEEKLQKLRTNIVALLQKVQEDIDINTDDELDAYIEDLITKGD
notes: MORC2, human, UniProt Q9Y6X9, full length with N39A; also called N39A mutant; source: Sf9 insect cells, purified (Strep-Tactin, HiTrap Q, Superose 6 SEC)
binding result [2]: binds

B3: full-length MORC2 ATPase-dead mutant (MORC2^S87A) (natural protein, human, UniProt Q9Y6X9 1-1032, looked up)
chain: MAFTNYSSLNRAQLTFEYLHTNSTTHEFLFGALAELVDNARDADATRIDIYAERREDLRGGFMLCFLDDGAGMDPSDAASVIQFGKAAKRTPESTQIGQYGNGLKSGSMRIGKDFILFTKKEDTMTCLFLSRTFHEEEGIDEVIVPLPTWNARTREPVTDNVEKFAIETELIYKYSPFRTEEEVMTQFMKIPGDSGTLVIIFNLKLMDNGEPELDIISNPRDIQMAETSPEGTKPERRSFRAYAAVLYIDPRMRIFIHGHKVQTKRLSCCLYKPRMYKYTSSRFKTRAEQEVKKAEHVARIAEEKAREAESKARTLEVRLGGDLTRDSRVMLRQVQNRAITLRREADVKKRIKEAKQRALKEPKELNFVFGVNIEHRDLDGMFIYNCSRLIKMYEKVGPQLEGGMACGGVVGVVDVPYLVLEPTHNKQDFADAKEYRHLLRAMGEHLAQYWKDIAIAQRGIIKFWDEFGYLSANWNQPPSSELRYKRRRAMEIPTTIQCDLCLKWRTLPFQLSSVEKDYPDTWVCSMNPDPEQDRCEASEQKQKVPLGTFRKDMKTQEEKQKQLTEKIRQQQEKLEALQKTTPIRSQADLKKLPLEVTTRPSTEEPVRRPQRPRSPPLPAVIRNAPSRPPSLPTPRPASQPRKAPVISSTPKLPALAAREEASTSRLLQPPEAPRKPANTLVKTASRPAPLVQQLSPSLLPNSKSPREVPSPKVIKTPVVKKTESPIKLSPATPSRKRSVAVSDEEEVEEEAERRKERCKRGRFVVKEEKKDSNELSDSAGEEDSADLKRAQKDKGLHVEVRVNREWYTGRVTAVEVGKHVVRWKVKFDYVPTDTTPRDRWVEKGSEDVRLMKPPSPEHQSLDTQQEGGEEEVGPVAQQAIAVAEPSTSECLRIEPDTTALSTNHETIDLLVQILRNCLRYFLPPSFPISKKQLSAMNSDELISFPLKEYFKQYEVGLQNLCNSYQSRADSRAKASEESLRTSERKLRETEEKLQKLRTNIVALLQKVQEDIDINTDDELDAYIEDLITKGD
notes: MORC2, human, UniProt Q9Y6X9, full length with S87A; Only the ATPase domain is modelled in the cryo-EM map; also called S87A mutant; source: Sf9 insect cells, purified (Strep-Tactin, HiTrap Q, Superose 6 SEC)
binding result [3]: binds

B4: MORC2 phosphodead (MORC2^PD) mutant (natural protein, human, UniProt Q9Y6X9 1-1032, looked up)
chain: MAFTNYSSLNRAQLTFEYLHTNSTTHEFLFGALAELVDNARDADATRIDIYAERREDLRGGFMLCFLDDGAGMDPSDAASVIQFGKSAKRTPESTQIGQYGNGLKSGSMRIGKDFILFTKKEDTMTCLFLSRTFHEEEGIDEVIVPLPTWNARTREPVTDNVEKFAIETELIYKYSPFRTEEEVMTQFMKIPGDSGTLVIIFNLKLMDNGEPELDIISNPRDIQMAETSPEGTKPERRSFRAYAAVLYIDPRMRIFIHGHKVQTKRLSCCLYKPRMYKYTSSRFKTRAEQEVKKAEHVARIAEEKAREAESKARTLEVRLGGDLTRDSRVMLRQVQNRAITLRREADVKKRIKEAKQRALKEPKELNFVFGVNIEHRDLDGMFIYNCSRLIKMYEKVGPQLEGGMACGGVVGVVDVPYLVLEPTHNKQDFADAKEYRHLLRAMGEHLAQYWKDIAIAQRGIIKFWDEFGYLSANWNQPPSSELRYKRRRAMEIPTTIQCDLCLKWRTLPFQLSSVEKDYPDTWVCSMNPDPEQDRCEASEQKQKVPLGTFRKDMKTQEEKQKQLTEKIRQQQEKLEALQKTTPIRSQADLKKLPLEVTTRPSTEEPVRRPQRPRSPPLPAVIRNAPSRPPSLPTPRPASQPRKAPVISSTPKLPALAAREEASTSRLLQPPEAPRKPANTLVKTASRPAPLVQQLSPSLLPNSKSPREVPSPKVIKTPVVKKTEAPIKLAPATPSRKRAVAVADEEEVEEEAERRKERCKRGRFVVKEEKKDSNELADAAGEEDSADLKRAQKDKGLHVEVRVNREWYTGRVTAVEVGKHVVRWKVKFDYVPTDTTPRDRWVEKGSEDVRLMKPPSPEHQSLDTQQEGGEEEVGPVAQQAIAVAEPSTSECLRIEPDTTALSTNHETIDLLVQILRNCLRYFLPPSFPISKKQLSAMNSDELISFPLKEYFKQYEVGLQNLCNSYQSRADSRAKASEESLRTSERKLRETEEKLQKLRTNIVALLQKVQEDIDINTDDELDAYIEDLITKGD
notes: MORC2, human, UniProt Q9Y6X9, full length with six serine to alanine mutations in the CTD; Only the ATPase domain is modelled in the cryo-EM maps; also called MORC2^PD-DNA; source: Sf9 insect cells, purified (Strep-Tactin, HiTrap Q, Superose 6 SEC)
binding result [3]: binds

B5: monomeric eGFP (meGFP)-tagged MORC2 (natural protein, human, UniProt Q9Y6X9 1-1032, looked up)
chain: MAFTNYSSLNRAQLTFEYLHTNSTTHEFLFGALAELVDNARDADATRIDIYAERREDLRGGFMLCFLDDGAGMDPSDAASVIQFGKSAKRTPESTQIGQYGNGLKSGSMRIGKDFILFTKKEDTMTCLFLSRTFHEEEGIDEVIVPLPTWNARTREPVTDNVEKFAIETELIYKYSPFRTEEEVMTQFMKIPGDSGTLVIIFNLKLMDNGEPELDIISNPRDIQMAETSPEGTKPERRSFRAYAAVLYIDPRMRIFIHGHKVQTKRLSCCLYKPRMYKYTSSRFKTRAEQEVKKAEHVARIAEEKAREAESKARTLEVRLGGDLTRDSRVMLRQVQNRAITLRREADVKKRIKEAKQRALKEPKELNFVFGVNIEHRDLDGMFIYNCSRLIKMYEKVGPQLEGGMACGGVVGVVDVPYLVLEPTHNKQDFADAKEYRHLLRAMGEHLAQYWKDIAIAQRGIIKFWDEFGYLSANWNQPPSSELRYKRRRAMEIPTTIQCDLCLKWRTLPFQLSSVEKDYPDTWVCSMNPDPEQDRCEASEQKQKVPLGTFRKDMKTQEEKQKQLTEKIRQQQEKLEALQKTTPIRSQADLKKLPLEVTTRPSTEEPVRRPQRPRSPPLPAVIRNAPSRPPSLPTPRPASQPRKAPVISSTPKLPALAAREEASTSRLLQPPEAPRKPANTLVKTASRPAPLVQQLSPSLLPNSKSPREVPSPKVIKTPVVKKTESPIKLSPATPSRKRSVAVSDEEEVEEEAERRKERCKRGRFVVKEEKKDSNELSDSAGEEDSADLKRAQKDKGLHVEVRVNREWYTGRVTAVEVGKHVVRWKVKFDYVPTDTTPRDRWVEKGSEDVRLMKPPSPEHQSLDTQQEGGEEEVGPVAQQAIAVAEPSTSECLRIEPDTTALSTNHETIDLLVQILRNCLRYFLPPSFPISKKQLSAMNSDELISFPLKEYFKQYEVGLQNLCNSYQSRADSRAKASEESLRTSERKLRETEEKLQKLRTNIVALLQKVQEDIDINTDDELDAYIEDLITKGD
notes: MORC2, human, UniProt Q9Y6X9; Probably the full-length cDNA; also called MORC2-meGFP; pBacMam-MORC2-meGFP-StrepII; source: expressed in MORC2 knockout HEK293T cells, in live cells
fold increase of dimers upon neocarzinostatin [4]: ~2 fold
